Biological target: CaM-agarose (Sigma), P62157
Assay: pull-down; CaM-agarose (Sigma) incubated with HEK293 lysate expressing a V5-His-tagged TRP channel; 20 mM Tris-HCl pH 7.4, 150 mM NaCl, 1% NP-40, 4 °C; 1 mM Ca2+ (Fig. 2A) or 2 mM Ca2+ (Fig. 2B); blot with anti-V5
Details: remark: other sources report otherwise

B1: TRPM8 (V5-His tagged), Q8R455 1-1104 (natural protein)
chain: MSFEGARLSMRSRRNGTLGSTRTLYSSVSRSTDVSYSESDLVNFIQANFKKRECVFFTRDSKAMESICKCGYAQSQHIEGTQINQNEKWNYKKHTKEFPTDAFGDIQFETLGKKGKYLRLSCDTDSETLYELLTQHWHLKTPNLVISVTGGAKNFALKPRMRKIFSRLIYIAQSKGAWILTGGTHYGLMKYIGEVVRDNTISRNSEENIVAIGIAAWGMVSNRDTLIRNCDDEGHFSAQYIMDDFMRDPLYILDNNHTHLLLVDNGCHGHPTVEAKLRNQLEKYISERTSQDSNYGGKIPIVCFAQGGGRETLKAINTSVKSKIPCVVVEGSGQIADVIASLVEVEDVLTSSMVKEKLVRFLPRTVSRLPEEEIESWIKWLKEILESPHLLTVIKMEEAGDEVVSSAISYALYKAFSTNEQDKDNWNGQLKLLLEWNQLDLASDEIFTNDRRWESADLQEVMFTALIKDRPKFVRLFLENGLNLQKFLTNEVLTELFSTHFSTLVYRNLQIAKNSYNDALLTFVWKLVANFRRSFWKEDRSSREDLDVELHDASLTTRHPLQALFIWAILQNKKELSKVIWEQTKGCTLAALGASKLLKTLAKVKNDINAAGESEELANEYETRAVELFTECYSSDEDLAEQLLVYSCEAWGGSNCLELAVEATDQHFIAQPGVQNFLSKQWYGEISRDTKNWKIILCLFIIPLVGCGLVSFRKKPIDKHKKLLWYYVAFFTSPFVVFSWNVVFYIAFLLLFAYVLLMDFHSVPHTPELILYALVFVLFCDEVRQWYMNGVNYFTDLWNVMDTLGLFYFIAGIVFRLHSSNKSSLYSGRVIFCLDYIIFTLRLIHIFTVSRNLGPKIIMLQRMLIDVFFFLFLFAVWMVAFGVARQGILRQNEQRWRWIFRSVIYEPYLAMFGQVPSDVDSTTYDFSHCTFSGNESKPLCVELDEYNLPRFPEWITIPLVCIYMLSTNILLVNLLVAMFGYTVGIVQENNDQVWKFQRYFLVQEYCNRLNIPFPFVVFAYFYMVVKKCFKCCCKEKNTESSACCFRNEDNETLAWEGVMKENYLVKINTKANDNAEEMRHRFRQLDTKLNDLKGLLKEIANKIK
modifications: here or on the partner: coupled to agarose
relative binding to CaM (normalized by total input): 0.9

B2: TRPV2 (V5-His tagged), Q9WUD2 1-761 (natural protein)
chain: MTSASSPPAFRLETSDGDEEGNAEVNKGKQEPPPMESPFQREDRNSSPQIKVNLNFIKRPPKNTSAPSQQEPDRFDRDRLFSVVSRGVPEELTGLLEYLRWNSKYLTDSAYTEGSTGKTCLMKAVLNLQDGVNACIMPLLQIDKDSGNPKLLVNAQCTDEFYQGHSALHIAIEKRSLQCVKLLVENGADVHLRACGRFFQKHQGTCFYFGELPLSLAACTKQWDVVTYLLENPHQPASLEATDSLGNTVLHALVMIADNSPENSALVIHMYDGLLQMGARLCPTVQLEEISNHQGLTPLKLAAKEGKIEIFRHILQREFSGPYQPLSRKFTEWCYGPVRVSLYDLSSVDSWEKNSVLEIIAFHCKSPNRHRMVVLEPLNKLLQEKWDRLVSRFFFNFACYLVYMFIFTVVAYHQPSLDQPAIPSSKATFGESMLLLGHILILLGGIYLLLGQLWYFWRRRLFIWISFMDSYFEILFLLQALLTVLSQVLRFMETEWYLPLLVLSLVLGWLNLLYYTRGFQHTGIYSVMIQKVILRDLLRFLLVYLVFLFGFAVALVSLSREARSPKAPEDNNSTVTEQPTVGQEEEPAPYRSILDASLELFKFTIGMGELAFQEQLRFRGVVLLLLLAYVLLTYVLLLNMLIALMSETVNHVADNSWSIWKLQKAISVLEMENGYWWCRRKKHREGRLLKVGTRGDGTPDERWCFRVEEVNWAAWEKTLPTLSEDPSGPGITGNKKNPTSKPGKNSASEEDHLPLQVLQSP
modifications: here or on the partner: coupled to agarose
relative binding to CaM (normalized by total input): 0.8
